Assay results: PMC9213739, “Substrates and Loaded Iron Ions Relative Position Influence the Catalytic Characteristics of the Metalloenzymes Angelica archangelica Flavone Synthase I and Camellia sinensis Flavonol Synthase” (Frontiers in Pharmacology, 2022)

Substrate: COc1ccc([C@@H]2CC(=O)c3c(O)cc(O)cc3O2)cc1O
Assay: UPLC-MS product formation, Lineweaver-Burk
Format: biochemical, Camellia sinensis
Conditions: 4'-O-methyl taxifolin formation (main product), Tris-HCl pH 7.5, 23 °C, 1 h, 5 mM 2-mercaptoethanol, 1 mM NADPH, 'separated protein', purification not described
Description: UPLC-MS product formation, Lineweaver-Burk on CaFLS

B1: CaFLS (Camellia sinensis) (protein)
chain: MEVERVQALSHVTLHELPAKFIRPAHEQPENSKAIEGVTVPVISLSRPHDVVVDALSKACSEWGFFLITDHGVEPSLIGRLKEVGEEFFKLPQKEKESYANDPSSGSFEGYGTKMTKNFDEKVEWIDYYFHVMHPPKKLNLDMWPKNPSSYRGVTEEYNVEILRTTNKLLELLSEGLGLDGKVLNSSLGGDEIEFEMKINMYPPCPQPELALGVEPHTDMSALTLLIPNDVPGLQVWKDGNWVAVNYLPNALFVHVGDQLEVLSNGKYKSVLHRSLVNKERTRMSWAVFVVPPHEAVIGPLPELIDEKNPAKYSTKTYAEYRYRKFNKIPQ
notes: synthetic gene in pET-28a(+) (NcoI/XhoI), expressed in E. coli BL21(DE3); 331 residues; mutants carry fragments of AnFNS I
Km: 55.47 µM | Vmax: 0.0558 µmol/min/mg | kcat: 0.0349 s⁻¹ | kcat/Km: 629 M⁻¹ s⁻¹
